Measured values: the supplement of paper PMC12067230
± gives the uncertainty stated by the source.

B1: C-22-Q; numbered along this chain (parent)
chain: EASNCFAIRHFENKFAVETLICFNLFLNSQEKHY

Variants of: B1
Test: amyloid nucleation score relative to WT ADan (yeast Sup35 reporter selection) (log enrichment difference); higher = more amyloid nucleation
Method: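 Deep mutational scan of the ADan peptide fused to the Sup35 nucleation domain (SupN) in S. cerevisiae [psi-pin-], covering all single amino-acid substitutions and stop truncations (truncations = sequence up to the stop). After 24 h Cu2+ induction, cells were selected on -ADE-URA plates for 7 d at 30 °C. The nucleation score is log enrichment (output/input, deep sequencing) minus that of WT ADan, as the error-weighted mean of 3 biological replicates (DiMSum).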

In order of falling amyloid nucleation score:
1. EASNCFAIRHFENKFAVETMICFNLFLNSQEKHY  1.01 ± 0.17
2. EASNCFAIRHFENKFAVETLIQFNLFLNSQEKHY  0.969 ± 0.17
3. EASNCFAIRHFENKFAVEPLICFNLFLNSQEKHY  0.859 ± 0.18
4. EASNCFAIRHFENKFAVETPICFNLFLNSQEKHY  0.75 ± 0.16
5. EASNCFAIRHFENKFAVETLICDNLFLNSQEKHY  0.717 ± 0.2
6. EASNCFAIRHFENKFAVETLICCNLFLNSQEKHY  0.666 ± 0.14
7. EASNCFAIRHFENKFAVETLICRNLFLNSQEKHY  0.617 ± 0.092
8. EASNCFAIRHFENKFAVERLICFNLFLNSQEKHY  0.563 ± 0.1
9. EASNCFAIRHFENKFAVETLINFNLFLNSQEKHY  0.532 ± 0.16
10. EASNCFAIRHFENKFAVETLICGNLFLNSQEKHY  0.469 ± 0.087
11. EASNCFAIRHFENKFAVEQLICFNLFLNSQEKHY  0.45 ± 0.2
12. EASNCFAIRHFENKFAVETLICENLFLNSQEKHY  0.416 ± 0.16
13. EASNCFAIRHFENKFAVETLICANLFLNSQEKHY  0.41 ± 0.13
14. EASNCFAIRHFENKFAVETLICLNLFLNSQEKHY  0.404 ± 0.084
15. EASNCFAIRHFENKFAVETLIAFNLFLNSQEKHY  0.347 ± 0.1
16. EASNCFAIRHFENKFAVEKLICFNLFLNSQEKHY  0.347 ± 0.17
17. EASNCFAIRHFENKFAVETLICKNLFLNSQEKHY  0.342 ± 0.22
18. EASNCFAIRHFENKFAVETLICHNLFLNSQEKHY  0.305 ± 0.19
19. EASNCFAIRHFENKFAVETGICFNLFLNSQEKHY  0.273 ± 0.097
20. EASNCFAIRHFENKFAVESLICFNLFLNSQEKHY  0.268 ± 0.11
21. EASNCFAIRHFENKFAVETLICMNLFLNSQEKHY  0.264 ± 0.21
22. EASNCFAIRHFENKFAVETLIVFNLFLNSQEKHY  0.222 ± 0.1
23. EASNCFAIRHFENKFAVETLICVNLFLNSQEKHY  0.2 ± 0.1
24. EASNCFAIRHFENKFAVENLICFNLFLNSQEKHY  0.196 ± 0.16
25. EASNCFAIRHFENKFAVEGLICFNLFLNSQEKHY  0.166 ± 0.098
26. EASNCFAIRHFENKFAVETLICQNLFLNSQEKHY  0.146 ± 0.17
27. EASNCFAIRHFENKFAVETLICYNLFLNSQEKHY  0.115 ± 0.13
28. EASNCFAIRHFENKFAVEHLICFNLFLNSQEKHY  -0.0921 ± 0.27
29. EASNCFAIRHFENKFAVETFICFNLFLNSQEKHY  -0.103 ± 0.12
30. EASNCFAIRHFENKFAVRTLICFNLFLNSQEKHY  -0.108 ± 0.1
31. EASNCFAIRHFENKFAVETLICWNLFLNSQEKHY  -0.121 ± 0.14
32. EASNCFAIRHFENKFAVETLICINLFLNSQEKHY  -0.248 ± 0.2
33. EASNCFAIRHFENKFAVETLILFNLFLNSQEKHY  -0.346 ± 0.099
34. EASNCFAIRHFENKFAVSTLICFNLFLNSQEKHY  -0.355 ± 0.11
35. EASNCFAIRHFENKFAVETLIIFNLFLNSQEKHY  -0.375 ± 0.17
36. EASNCFAIRHFENKFAVETCICFNLFLNSQEKHY  -0.49 ± 0.13
37. EASNCFAIRHFENKFAVETLICNNLFLNSQEKHY  -0.504 ± 0.4
38. EASNCFAIRHFENKFAVEYLICFNLFLNSQEKHY  -0.511 ± 0.18
39. EASNCFAIRHFENKFAVETLITFNLFLNSQEKHY  -0.69 ± 0.14
40. EASNCFAIRHFENKFAVEELICFNLFLNSQEKHY  -0.714 ± 0.17
41. EASNCFAIRHFENKFAVETLIFFNLFLNSQEKHY  -0.753 ± 0.13
42. EASNCFAIRHFENKFAVEDLICFNLFLNSQEKHY  -0.804 ± 0.17
43. EASNCFAIRHFENKFAVETLIGFNLFLNSQEKHY  -1.17 ± 0.097
44. EASNCFAIRHFENKFAVETVICFNLFLNSQEKHY  -1.46 ± 0.12
45. EASNCFAIRHFENKFAVTTLICFNLFLNSQEKHY  -1.61 ± 0.21
46. EASNCFAIRHFENKFAVETLISFNLFLNSQEKHY  -1.65 ± 0.1
47. EASNCFAIRHFENKFAVETLIHFNLFLNSQEKHY  -1.92 ± 0.28
48. EASNCFAIRHFENKFAVETQICFNLFLNSQEKHY  -1.95 ± 0.24
49. EASNCFAIRHFENKFAVEMLICFNLFLNSQEKHY  -1.99 ± 0.54
50. EASNCFAIRHFENKFAVETLICPNLFLNSQEKHY  -1.99 ± 0.31
51. EASNCFAIRHFENKFAVEALICFNLFLNSQEKHY  -2.16 ± 0.23
52. EASNCFAIRHFENKFAVEWLICFNLFLNSQEKHY  -2.17 ± 0.28
53. EASNCFAIRHFENKFAVETLIKFNLFLNSQEKHY  -2.31 ± 0.24
54. EASNCFAIRHFENKFAVETDICFNLFLNSQEKHY  -2.35 ± 0.21
55. EASNCFAIRHFENKFAVETLIYFNLFLNSQEKHY  -2.4 ± 0.18
56. EASNCFAIRHFENKFAVETLIEFNLFLNSQEKHY  -2.4 ± 0.2
57. EASNCFAIRHFENKFAVECLICFNLFLNSQEKHY  -2.47 ± 0.27
58. EASNCFAIRHFENKFAVVTLICFNLFLNSQEKHY  -2.72 ± 0.29
59. EASNCFAIRHFENKFAVETLIWFNLFLNSQEKHY  -2.89 ± 0.21
60. EASNCFAIRHFENKFAVETTICFNLFLNSQEKHY  -2.92 ± 0.34
61. EASNCFAIRHFENKFAVETLIRFNLFLNSQEKHY  -3.03 ± 0.21
62. EASNCFAIRHFENKFAVETLIDFNLFLNSQEKHY  -3.23 ± 0.32
63. EASNCFAIRHFENKFAVETLIPFNLFLNSQEKHY  -3.23 ± 0.46
64. EASNCFAIRHFENKFAVEFLICFNLFLNSQEKHY  -3.39 ± 0.4
65. EASNCFAIRHFENKFAVEVLICFNLFLNSQEKHY  -3.41 ± 0.34
66. EASNCFAIRHFENKFAVEILICFNLFLNSQEKHY  -3.44 ± 0.43
67. EASNCFAIRHFENKFAVETRICFNLFLNSQEKHY  -3.67 ± 0.24
68. EASNCFAIRHFENKFAVWTLICFNLFLNSQEKHY  -4.12 ± 0.54
69. EASNCFAIRHFENKFAVETKICFNLFLNSQEKHY  -4.53 ± 0.6
70. EASNCFAIRHFENKFAVELLICFNLFLNSQEKHY  -4.84 ± 0.63
71. EASNCFAIRHFENKFAVYTLICFNLFLNSQEKHY  -5.47 ± 1.1
